According to the supplement of paper PMC12855868:

B1: library; numbered along this chain (parent)
chain: MAAAGGARLLRAASAVLGGPAGRWLHHAGSRAGSSGLLRNRGPGGSAEASRSLSVSARARSSSEDKITVHFINRDGETLTTKGKVGDSLLDVVVENNLDIDGFGACEGTLACSTCHLIFEDHIYEKLDAITDEENDMLDLAYGLTDRSRLGCQICLTKSMDNMTVRVPETVADARQSIDVGKTS

Variants of: B1
Test: scaled log2 fold change in cell abundance, elesclomol vs control (0 = silent mean, 1 = nonsense mean) (scaled log2 ratio); higher = higher viability under elesclomol (loss of FDX1 cuproptosis function)
Settings: glucose 10 mM
[1] = with ABC1 FDX1 KO, elesclomol 5 nM, 14 days
[2] = with HEK293T FDX1 KO, elesclomol 40 nM, 11 days
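Further: variant abundance is its share of total variant reads in each endpoint sample, from next-generation sequencing of the integrated ORF PCR-amplified out of genomic DNA.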

Variant	scaled log2 fold change [1]	scaled log2 fold change [2]
MAAAGGARLLRAASAVLGGPAGRWLHHAGSRAGSSGLLRNRGPGGSAEASRSLSVSARARSSSEDKITVHFINRDPETLTTKGKVGDSLLDVVVENNLDIDGFGACEGTLACSTCHLIFEDHIYEKLDAITDEENDMLDLAYGLTDRSRLGCQICLTKSMDNMTVRVPETVADARQSIDVGKTS [G76P]	0.585	0.000649
MAAAGGARLLRAASAVLGGPAGRWLHHAGSRAGSSGLLRNRGPGGSAEASRSLSVSARARSSSEDKITVHFINRDGETLTTKGKVGDSLLDVVVENNLDIDGFGACEGTLACSTCHLIFEDHIYEKLDAITDEENDMLDLAYGLTDRSRLGCQICLTKSMDRMTVRVPETVADARQSIDVGKTS [N162R]	0.34	-0.871
MAAAGGARLLRAASAVLGGPAGRWLHHAGSRAGSSGLLRNRGPGGSAEASRSLSVSARARSSSEDKITVHFINRDGETLTTKGKVGDSLLDVVVENNLDIDGFGACEGTLACSTCHLIFEDHIYEKLDAITDENNDMLDLAYGLTDRSRLGCQICLTKSMDNMTVRVPETVADARQSIDVGKTS [E134N]	1.16	0.994
MAAAGGARLLRAASAVLGGPAGRWLHHAGSRAGSSGLLRNRGPGGSAEASRSLSVSARARSSSEDKITVHFINRDGETLTTKGKVGDSLLDVVVENNLDIDGFGACEGTLACSTCHLIFEDHIYEKLIAITDEENDMLDLAYGLTDRSRLGCQICLTKSMDNMTVRVPETVADARQSIDVGKTS [D128I]	-0.0983	-0.34
MAAAGGARLLRAASAVLGGPAGRWLHHAGSRAGSSGLLRNRGPGGSAEASRSLSVSARARSSSEDKITVHFINRDGETLTTKGKVGDSLLDVVVENNLDIDGFGACEGTLACSTCHLIFEDHIYEFLDAITDEENDMLDLAYGLTDRSRLGCQICLTKSMDNMTVRVPETVADARQSIDVGKTS [K126F]	-0.00916	0.517
MAAAGGARLLRAASAVLGGPAGRWLHHAGSRAGSSGLLRNRGPGGSAEASRSLSVSARARSSSEDKITVHFINRDGETLTTKGKVGDSLLDVVVENNLDIDGFGACEGTLACSTCHLIFEDHIYEKLDAITDEENDMLDLAYGLTDRSRLGCQICLTKSMDNMTVRVPETVADARQSIDVGKTC [S184C]	0.145	–
MAAAGGARLLRAASAVLGGPAGRWLHHAGSRAGSSGLLRNRGPGGSAEASRSLSVSARARSSSEDKITVHFINRDGETLTTKGKVGDSLLDVVVENNLDIDGFGACEGTLACSTCHLIFEDHIYEKLDAITDEENDMLDLAYGLTDRSCLGCQICLTKSMDNMTVRVPETVADARQSIDVGKTS [R149C]	0.906	1.99
MAAAGGARLLRAASAVLGGPAGRWLHHAGSRAGSSGLLRNRGPGGSAEASRSLSVSARARSSSEDKITVHFINRDGETLTTKGKVGDSLLDVVVENNLDIDGFGACPGTLACSTCHLIFEDHIYEKLDAITDEENDMLDLAYGLTDRSRLGCQICLTKSMDNMTVRVPETVADARQSIDVGKTS [E107P]	0.92	0.951
MAAAGGARLLRAASAVLGGPAPRWLHHAGSRAGSSGLLRNRGPGGSAEASRSLSVSARARSSSEDKITVHFINRDGETLTTKGKVGDSLLDVVVENNLDIDGFGACEGTLACSTCHLIFEDHIYEKLDAITDEENDMLDLAYGLTDRSRLGCQICLTKSMDNMTVRVPETVADARQSIDVGKTS [G22P]	0.294	–
MAAAGGARLLRAASAVLGGPAGRWLHHAGSRAGSSGLLRNRGPGGSAEASRSLSVSARARSSSEDKITVHFINRDGETLTTKGKVGDSLLDVVVENNLDIDGFGACEGTLACSTCHLIFEDHIYEKIDAITDEENDMLDLAYGLTDRSRLGCQICLTKSMDNMTVRVPETVADARQSIDVGKTS [L127I]	0.0723	0.119
MAAAGGARLLRAAHAVLGGPAGRWLHHAGSRAGSSGLLRNRGPGGSAEASRSLSVSARARSSSEDKITVHFINRDGETLTTKGKVGDSLLDVVVENNLDIDGFGACEGTLACSTCHLIFEDHIYEKLDAITDEENDMLDLAYGLTDRSRLGCQICLTKSMDNMTVRVPETVADARQSIDVGKTS [S14H]	-0.573	–
MAAAGGARLLRAASAVLGGPAGRWLHHAGSRAGSSGLLRNRGPGGSAEASRSLSVSARARSSSEDKITVHFINRDGETLTTKGKVGDSLLDQVVENNLDIDGFGACEGTLACSTCHLIFEDHIYEKLDAITDEENDMLDLAYGLTDRSRLGCQICLTKSMDNMTVRVPETVADARQSIDVGKTS [V92Q]	-1.03	0.183
MAAAGGARLLRAASAVLGRPAGRWLHHAGSRAGSSGLLRNRGPGGSAEASRSLSVSARARSSSEDKITVHFINRDGETLTTKGKVGDSLLDVVVENNLDIDGFGACEGTLACSTCHLIFEDHIYEKLDAITDEENDMLDLAYGLTDRSRLGCQICLTKSMDNMTVRVPETVADARQSIDVGKTS [G19R]	0.483	1.5
MAAAGGARLLRAASAVLGGPAGRWLHHAGSRAGSSGLLRNRGPGGSAEASRSLSVSARARSSSEDKITVHFINRDGELLTTKGKVGDSLLDVVVENNLDIDGFGACEGTLACSTCHLIFEDHIYEKLDAITDEENDMLDLAYGLTDRSRLGCQICLTKSMDNMTVRVPETVADARQSIDVGKTS [T78L]	-0.709	0.584
MAAAGGARLLRAASAVLGGPAGRWLHHAGSRAGSSGLLRNRGPGGSAEASRSLSVSARARSSSEDKITVHFINRDGETLTTKGKVGDSLLDVVVENNLDIDGFGACEGTLACSTCHLIFEDHIYEKLDAITDEENDMLWLAYGLTDRSRLGCQICLTKSMDNMTVRVPETVADARQSIDVGKTS [D139W]	0.0888	-0.429
MAAAGGARLLRAASAVLGGPAGRWLHHAGSRAGSSGLLRNRGPGGSAEASRSLSVSARARSSSEDKITVHFINRDGETLTTKGKVGDSLLDVVVENNLGIDGFGACEGTLACSTCHLIFEDHIYEKLDAITDEENDMLDLAYGLTDRSRLGCQICLTKSMDNMTVRVPETVADARQSIDVGKTS [D99G]	-1	-0.777
MAAAGGARLLRAASAVLGGPAGRWLHHAGSRAGSSGLLRNRGPGGSAEASRSLSVSARARSSSEDKITVHFINRDGETLTTKGKVGDSLLDVVVENNLDIDGFGACEGTLACSTCHLIFEDHIYEKLDAITDEENDMLDLAYGLTDRSRLCCQICLTKSMDNMTVRVPETVADARQSIDVGKTS [G151C]	0.338	-0.416
MAAAGGARLLRAASAVLGGPAGRWLHHAGSRAGSSGLLRNRGPGGSAEASRSLSVSARARSSSEDKITVHFINRDGETLTTKGKVGDSLLDVVVENNLDIDGFGACEGTLACSTCHLIFEDHIYEKLDAITDEENDMLDLAYGLTDRSRLGCQICLTKSMDNMDVRVPETVADARQSIDVGKTS [T164D]	0.108	0.818
